# Source: patent US20220000762A1, “COMPOSITIONS FOR TREATING OXIDATIVE STRESS-ASSOCIATED SKIN DISEASES AND SKIN AGEING AND DIAGNOSIS OF OXIDATIVE STRESS-ASSOCIATED SKIN DISEASES” (priority 2019, published 2022)
# B1: RoxP: radical oxygenase of Propionibacterium acnes, secreted antioxidant protein of C. acnes; SEQ ID NO: 1 for strain KPA171202 (protein)
# chain: MFVQIAASLAAASSIALGIPGAATPIDESQLPVGPQVSVTDSAQHTGPFAASSPLTITVKPGAPCVRADGYQESMVTRVLDDKGHQVWTGTFDESKLIGGTGLGTATFHVGSPAAAFNFHGSERTTYRTLSYCAYPHYVNGTRERLSQVSVKTFMVDPALN
# modifications: Cutibacterium acnes
# Key:
# [1] = Deoxyribose (TBA-MDA) assay; format: biochemical; conditions: 2 mg/ml RoxP, 37° C., 1 h
# Procedure: Deoxyribose assay is a well-established method to measure generation of hydroxyl radicals in biological systems and for evaluating the ability of antioxidants to reduce .OH radical generation. Such assays are described for example in Gutteridge & Halliwell (Biochem J. 1988, vol. 253(3), 932-933) and references therein. In particular, deoxyribose incubated with H2O2 and Fe2^+ (or Fe3^+ plus a reductant) is degraded into products that can react to form thiobarbituric acid-malondialdehyde (classic TBA-MDA assay) chromogen. This reaction is driven by —OH radicals. A reduction in prevalence of .OH radicals will result in fewer formed complexes and lower absorbance.
# A reaction mixture containing 5 mM 2-deoxyribose, 100 μM FeCl3, 100 μM EDTA, 1 mM H2O2, and 7.6 μg/ml ascorbic acid in buffer A (20 mM KH2PO4—KOH, pH 7.4), including or not 2 mg/ml RoxP, in triplicate, was incubated at 37° C. for 1 h (total volume 1 ml). After incubation, 1% w/v TBA (thiobarbituric acid) in 50 mM NaOH, and 2-8% v/v TCA (trichloroacetic acid) was added, followed by incubation at 95° C. for 15 minutes, and reading of absorbance at 532 nm.
# [2] = Lipid hydroperoxide assay in UV irradiated and non-irradiated plasma; format: biochemical; conditions: 300 μg RoxP in 500 μl blood, plasma both irradiated (UVA/UVB) and non-irradiated
# Procedure: Hydroperoxides react with Fe^2+ ions to produce Fe^3+ ions which are detected using thiocyanate ion as chromogen. Lower abundance of Fe^3+ ions results in lowered absorbance, indicating lower level of lipid hydroperoxides in irradiated plasma.
# Blood was collected in EDTA tubes. Samples containing 500 μl blood+150 μl RoxP (300 μg RoxP), or 500 μl blood+150 μl PBS, were subjected to irradiation:
# UVA—irradiation 3×5000 μJ/cm^2; tubes were rotated between irradiation steps; or
# Controls having composition identical to the samples, but not irradiated, were included in the experiment.
# The blood samples were centrifuged at 1000×g, plasma was collected and frozen at −80° C.
# Lipid hydroperoxides were quantified using lipid hydroperoxide assay kit (Cayman Chemical, item no. Item No. 705002).
# [3] = Ferrozine assay; format: biochemical; conditions: incubation 17 hours
# Procedure: The reagents used in the ferrozine assay included 100 μl of 50 mM iron ammonium dodecahydrate, 100 μl 2 mM ferrozine in H2O, and RoxP (50 μl) resulting in various RoxP concentrations indicated in the graph, diluted from a stock solution of 2 mg/ml RoxP in PBS. Incubation was Incubation 17 hours.
# [4] = Singlet Oxygen Sensor Green assay with UV-exposed porphyrins; format: biochemical; conditions: 1 μM Coproporphyrin III or Protoporphyrin IX, 10 min UV lamp, varying amounts of RoxP
# Procedure: The Singlet Oxygen Sensor Green dye was dissolved in Methanol and added in PBS buffer to reach a final concentration of 0.4 μM. This solution was distributed in a clear 96 well plate. To the wells 1 μM Coproporphyrin III, or 1 μM Protoporphyrin IX was added. Then varying amounts of RoxP were added. Each condition was set up as 4 replicas. Two of the replicas were covered by aluminium foil during the exposure, while two wells were exposed for 10 min to a UV lamp. After exposure, the fluorescence of the Singlet Oxygen Sensor Green dye was read out indicating the amount of singlet oxygen generated.
# [5] = test system: healthy subjects; assay: UVA/UVB-irradiation study in human subjects: skin color a* (erythema) by Chromameter; format: in vivo; conditions: topical, 1.25 MED UV, n=7
# Procedure: The objective of this study was to assess the UV-protection potential of three compositions containing RoxP in 7 healthy subjects by measuring the antioxidative effect and skin erythema. Oxidative stress was induced by exposition to UVA- and UVB-light to the skin on the upper back. The anti-oxidative activity of the test products was evaluated by measurement of sebum lipid oxidization levels (concentration of squalene monohydroperoxide) of swab-samples from the skin surface. The potential was assessed after two applications of RoxP in comparison to water, an untreated control and one hydrophilic standard antioxidant (H1) after induction of a light sunburn (1.25 MED). […] Additionally, the UV-protection potential of the products was evaluated by measuring the produced erythema (Chromameter). […]
# Erythema was evaluated (Chromameter) at t1=baseline before irradiation, t2=30 to 50 minutes after irradiation, and t3=16 to 24 hours after irradiation. Squalene monohydroperoxide (SQOOH) was quantified at 25 to 45 minutes after irradiation. […]
# On Day 2, subjects returned to the Study Site 20±4 hours after irradiation. […] The reading of the MED was performed and the irradiation time for 1 MED was determined. The correct dose for the irradiation of test areas was calculated by multiplying the irradiation dose of 1 MED with the factor for irradiation (1.25). […]
molecule,measurement,setting,value
B1,absorbance at 532 nm (generation of .OH radicals),[1],reduced
same,lipid hydroperoxide levels,[2],reduced
same,reduction of Fe^3+ to Fe^2+,[3],confirmed reduction of Fe^3+ to Fe^2+
same,generation of radicals formed through the porphyrins (singlet oxygen),[4],efficiently inhibited
same,increase of skin color a* (median),"[5]; during 24 hours, water control 6 units",3.4 units
same,erythema 30-50 min after UV irradiation,[5],less erythrema than the water control
